Test results taken from the supplement of paper PMC9170038.

Tested on: MS2 coat protein
Test: apparent KD of MS2 coat protein, switch OFF state (with FMN for OFF switches, without FMN for ON switches); designed switch direction (-1 OFF switch, 1 ON switch): -1; higher = weaker reporter binding
Conditions: FMN input: 0 or 200 uM; Eterna round: R93 (includes R88 designs)
Summary of the method: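 Designed RNA switches were transcribed on-chip from Illumina sequencing clusters. SNAP-549-labelled MS2 coat protein was titrated onto them in twofold steps from 0.7 or 1.5 nM to 3 µM in 100 mM Tris-HCl pH 7.5, 80 mM KCl, 4 mM MgCl2, either without or with constant ligand. Apparent KD reflects the per-design median of normalised cluster binding-curve fits.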

Sequence | apparent KD of MS2 coat protein [nM]
AGCAAGUAAGGAUAUGCAAAGUCAGGACACACACUGACGAAGCAGAAGGUACAUGAGGAUCACCCAUGUAAGCA [Mat - Exaclusion 4 - Eli mod - D61] | 18
AAAAAGACAGGAUAUACAUGAAAAAAAAAAAAAAAAAAAAAACAUGAGGAUCACCCAUGUAGAAGGGUCAAAAA [Starry's Exclusion 2] | 54.6
AAAGGGUCAGGAUAUCGAUUAAUAAUAAAAUAAAUAAAGAUCGAGAAGGGACAUGAGGAUCACCCAUGUAUAAA [May 77] | 54.6
AAAAAGUGAGGAUAUACAUGAGGAUCACCCAUGUAAAAGGUCGCGGGAGGGAGGGACGGUAGAAGGCGCAAAAA [Excls3-VII] | 22.2
AAGAAGUGAGGAUAUCGAAGACUGUCGAAAAGACAGUCGAACGAGAAGGCACAUGAGGAUCACCCAUGUAAGAA [Marsupial] | 45
GGUUGAAUAGGAUAUACAUGAGGAUCACCCAUGUGAGAGAAAAAAGUGAGAAAGAAAAGUAGAAGGAUUUGACG [salish99-ex3-61] | 65.1
AAAAAACAUGAGGAUCACCCAUGUGAGGAUAUGAUGCGAAUAAAGAAAGAAUAAAGCAUCAGAAGGCACACCAA [Mat - Exclusion 1 - Eli mod - D61] | 48.7
CGCUAGUCAGGAUAUACAAACAUGUCAAAAGACGUGAAAAAACAUGAGGAUCACCCAUGUAGAAGGGACUAGCG [Mat - Exclusion 2 - JL mod - D18] | 17.7
UAUAUACAUGAGGAUCACCCAUGUCAGGAUAUGCGCCUAGAAUAUACAUAAGAUACAAGCAGAAGGGACACUAA [JR_Exc001_Sub206] | 49.9
GAAAACUGAGGAUAUACUUUGGGAAAAGAAAAGAUGAUGUUACAUGAGGAUCACCCAUGUAGAAGGCAGAAAAG [Mat - Exclusion 2 - Mod - D151] | 34.5
AAAAAGGCAGGAUAUGCAUACUCACGGAAAAACUGGAUGGUACAUGAGGAUCACCCAUGUAGAAGGGCUAAAAA [Dora Explored 16 - Jieux - Exclusion 2] | 44.3
GGAAAGCGAGGAUAUACAUGAGGAUCACCCAUGUAAACAAACAAACAAACAAACAAAUGUAGAAGGCGCAAAAC [Exclusion 3 Strange] | 50.6
AAAAAUUGAGGAUAUACGAACAUGUCAAAAGACGUGAAGGGACAUGAGGAUCACCCAUGUAGAAGGCGAAAAAA [JL Loop Breaker 2] | 19.7
AAAAAACAUGAGGAUCACCCAUGUGAGGAUAUGCGAAAAUAAAAUAAAUAAAUAAAAAGCAGAAGGCACACCAA [Mat - Exclusion 1 - Eli mod - D60] | 41.1
CUUAUGUGAGGAUAUCAGUAGUAAAAAAAAAAAAUUACUACUGAGAAGGCACAUGAGGAUCACCCAUGUGCCUU [EX4 323: Super Stable 23] | 14.2
CUCAUGUAAGGAUAUCAGUAGUAAAAAAAUAAAAUUACUACUGAGAAGGUACAUGAGGAUCACCCAUGUCCGGG [EX4 374: Super Stable 74] | 18.3
AAGAAGUCAGGAUAUGGAAAAGAAAAGAAAAGAAAAGAAAACCAGAAGGGACAUGAGGAUCACCCAUGUAAGAA [Xerxes I the Great] | 28.1
AAAAAACAUGAGGAUCACCCAUGUCAGGAUAUGCAGAAAAAGAAAAAAAGAAAAGAAAGUAGAAGGGACAAAAA [May 7] | 31.8
UUUUGACAUGAGGAUCACCCAUGUCAGGAUAUAGUAGGAAAAAAAAAAAAAAAAACUACUAGAAGGGAUAUGGA [Design 15: Not So Super Stable 1] | 40.2
AAAAAGGCAGGAUAUACAUGAGGAUCACCCAUGUAAAAAAAAAAAAAGGGAAAAAAAAGUAGAAGGGCCAAAAA [Khamudi] | 48.5
GAAAAACAUGAGGAUCACCCAUGUGAGGAUAUGAACGAAAUAAAAUAAAAAUAAAAGUUCAGAAGGCACAAAAG [Mat - Exclusion 1 - Eli mod - D12] | 69.9
AAAAAACGAGGAUAUACAAAAACAAAAGGAACAAAAUACAAACAUGAGGAUCACCCAUGUAGAAGGCGUAAAAA [Default title] | 23.5
AGGAAACAUGAGGAUCACCCAUGUUAGGAUAUGAACGAAAAUAAAUAAAAAUAAAAGUUCAGAAGGAACAAAAA [66%, Wbt, 18] | 41.9

Sequence | apparent KD of MS2 coat protein [nM]
AGUCAUACAGGAUAUACAUGAGGAUCACCCAUGUAUAUCCAAAAAAAAAAAAAAACAUGUAGAAGGGUAUGACA [EX3 207: Super Stable 7] | 7.41
AACAGUACAGGAUAUACAUGAGGAUCACCCAUGUGAAAAUAAAGUGGCGUACCACAAAGUAGAAGGGUACUGGA [Moding Maslow revisited (73) 4] | 101
AAAAAGUCAGGAUAUACAGAAAAAAAAACGAAAAAAAAUCUGUAGAAGGGACAUGAGGAUCACCCAUGUUAAAA [Ex 4 May 13] | 26.8
AAGAAGGUAGGAUAUACUAAAGAAAUGAAAAGAAAUAAAGAACAUGAGGAUCACCCAUGUAGAAGGACCAAGAA [Webenre] | 32.2
AAAAAACAUGAGGAUCACCCAUGUAAGGAUAUGCUAAAAAACACGGAAAACGUGAAUAGCAGAAGGUACAAAAA [66%, Wbt, 30] | 38.5
AAGAACGGAGGAUAUACAAAAUAAAAGAAAAGAAAGAAAGAACAUGAGGAUCACCCAUGUAGAAGGUCGAAGAA [Seth Meribre] | 20.8
AAGAAACAUGAGGAUCACCCAUGUGAGGAUAUCAAAAAGAAAAGAAAAGAAAGAAGAAUGAGAAGGCACAAAGG [Mery—] | 32.5
AAAAAACAUGAGGAUCACCCAUGUGAGGAUAUCUGUAUUCAAUCCUCGGAUUGAAUACAGAGAAGGCACAUGGA [Ex1: 610] | 13.8
AUCUUGUCAGGAUAUCGUACAAUAUGGAAAACAUAGAGGUACGAGAAGGGACAUGAGGAUCACCCAUGUAAAAC [May 98] | 73.7
CACGGACAUGAGGAUCACCCAUGUGAGGAUAUGCUCUACGAACGUUUUCCCACGAGAAGCAGAAGGCACAUUUC [try 2] | 90.8
AAGAACUGAGGAUAUGCAAAAGGGAAAGCUGAUCCUCAUCUACAUGAGGAUCACCCAUGUAGAAGGCGGGAAAU [Aveerve] | 47.7
AAAAGUGGAGGAUAUACAUGAGGAUCACCCAUGUGUAAAAAUAAAAACACAAAAGAAAGUAGAAGGCCACAAAG [Mat - Exclusion 3 - Mayanna mod - D115] | 55.2
AAAAAGUGAGGAUAUUCGGAAGGGAAAGCGCAAACCCAACCGAAGAAGGCACAUGAGGAUCACCCAUGUGGAAA [Ecls4-III 65% - Early + late G segment 2] | 26.8
GAAAAGUGAGGAUAUUCGGAUAGGAAAACGAAAACCUAUCCGAAGAAGGCACAUGAGGAUCACCCAUGUGGGAA [Mat - Exaclusion 4 - Eli mod - D49] | 119
AGUCAUACAGGAUAUACAUGAGGAUCACCCAUGUAAAUCCUAAAAAGGUGAUCCUCAUGUAGAAGGGUAUGACA [EX3 219: Super Stable 19] | 17.7
AAAAAACAUGAGGAUCACCCAUGUGAGGAUAUCGGAGGAGGAGGAGGAGGAGGAGGAGCGAGAAGGUACAAAAA [salish99-Ex1-04] | 31.5
CUCAUGUGAGGAUAUGUACAGAAAAAAAUGGGUGAAACUGUACAGAAGGCACAUGAGGAUCACCCAUGUGAAAA [EX4 378: S S Pseudoknot 3] | 21.1
CAGUACUGAGGAUAUACAUGAGGAUCACCCAUGUGUUCCAGCUAGGAAACUAGCAAAUGUAGAAGGCAGUACUG [Ex3: 827] | 85.8
AAGAAACAUGAGGAUCACCCAUGUAAGGAUAUGUAAAAGAAAAGAAAAGAAAGAAGAAACAGAAGGUACAAAGG [Wahankh Intef II] | 33.7
AAAAAGGCAGGAUAUGCAUACUCACGGAAAAAAAGGUUGGGACAUGAGGAUCACCCAUGUAGAAGGGCUAAAAA [Dora Explored 15 - Jieux - Exclusion 2] | 60.8
AAAAAGUCAGGAUAUCGGAAAAAAAAAAAAAAAAGGAGAAACGAGAAGGGACAUGAGGAUCACCCAUGUAAAAA [No Frills] | 44
UAAAGACAUGAGGAUCACCCAUGUGAGGAUAUCGGAGAUAACAGAACAUCAAGUUCAGCGAGAAGGCACAGAAA [JR_Exc001_Sub402] | 72
